In a protein production outcome set (Wang et al. 2014) one finds protein production data, which are given here for 16 sequences.

The nature of this series: label from the status in PepcDB records.

Regarding “MPIMGSSVYITVELAIAVLAILGNVLVCWAVWLNSNLQNVTNYFVVSLAAADIAVGVLAIPFAITISTGFCAACHGCLFIACFVLVLTQSSIFSLLAIAIDRYIAIRIPLRYNGLVTGTRAKGIIAICWVLSFAIGLTPMLGWNNCGQPKEGKNHSQGCGEGQVACLFEDVVPMNYMVYFNFFACVLVPLLLMLGVYLRIFLAARRQLKQMESQPLPGERARSTLQKEVHAAKSLAIIVGLFALCWLPLHIINCFTFFCPDCSHAPLWLMYLAIVLSHTNSVVNPFIYAYRIREFRQTFRKIIRSHVLRQQEPFKAAGTSARVLAAHGSDGEQVSLRLNGHPPGVWANGSAPHPERRPNGYALGLVSGGSAQESQGNTGLPDVELLSHELKGVCPEPPGLDDPLAQDGAGVS”, the protein production result is “not failed”. For “MPISNPCFTSFTQPIDGYTLPEKFTFPFCYEPHPLCELAAEELQRHLEAQQEWHHNFGLSGDKSNAIGKMFGVLLVKAPTGEIGYLSAFSGKIADSNHLPYFVPPVFDMLEEDGFFKTELAEITEINATIKQLEANPQLSHLATSIQSETTASLQQIEIQRQVMIEGRKSRKAQRAAAEITAQDGTEKSAEELEQLKVVLGKESVKEKNTLRDIKLIWDEKINALQCQLNELEDALNELKTKRKNLSNGLQKKLFQQYKFLNTHGIEKDLNDIFKDTPNQIPPAGSGECAAPKLLQYAFAHGFTPLALAEFWWGIAPKSEIRQHKKFYASCQSKCQPILGHMLDGIEMDENPLLINPAEGKDLEIVYEDEFMVVVNKPADFLSVPGKNIHDSVYARIQQRYPDATGGLIIHRLDMATSGLLVLGLTPKAHKRLQQQFINRTVEKRYTALLDGVLEQDEGLITLPMRGDLYDRPRQLVCFEHGKPAETTYQVIERKENKTKVYLYPKTGRTHQLRVHCAHYLGLNMPITGDGLYGKKANRLHLHAGYLSLIHPITKEPMEFNVEAEF”, the protein production entry is on record as “not failed”.

As for “MPKDNEEPLVKIPEFDERKFLFDEKERAKSIVIIFIIGAIVGSISGYFQLIGYWYLSLILILVVLLFSEYILKGLGVQVSKKTSHRILLVGEFLLTWLVFWILVLNPPLNHVSGPEIANLQMYSNNVWTSIVEKNGVYNIPFGSATSGTVSLRVYMFAYSGVVSYKVMAYQSSYAPAVIPSHLNDNYLYFNLTDVHYGSTYYVQVYGSTTVNGSNLTSEVSYTLYAE”, the protein production result is given as “failed”. For “MPKIHELSETLTNQIAAGEVIERPASVVKELVENSLDAGATRIRVDFVDAGLKQIVVQDNGTGIARDQVDLAFTRHATSKISNEHDLFKVATLGFRGEALASISAVSHVEILTATKGAIGVKATFSGGNKKGQEDAAAREGTQITVRDLFFNTPARLKYLRSPRTEIMKIVDIINRLALGYPSVSFTLSNTGKVLLRTPGNGNLKQTVANVYGRHIAEKMEEFEAKDNDFKISGLMSKPELTRSTRNFVSILLNGRYIRNFQLNTAIMDGYGAKLAARHYPIIVLAIQVDPLLVDVNVHPTKQEVRLSKEKELSRLITSTISNVFIKKTEQTSAFANLENKRETLVDQLQFNLNQNVVNTARKKTPEIHENNEKPEFLAKPKKPEEEKTDYVDLNIPREDDKYIITKTWDKNVLLQQDLRPFSNTLCDSEVISSGDETLANNLPQLSYIGQIDTYIIAENNSDLFLIDQVAARRRLQFEKIYEMLLSKKIVQQGLLTPIVLEFGNLDFIQIKDKIDQIKQIGIYLEDFGQNSFIVRSYPTWIHNDVEETIRQILDGYLNLDKGKSENLFKRVAAMQAKRDISGKINLAAAEASQILIDLRKTEDPYHDADGRLVLVRMSENELKKMFKRDK” the value was “failed”. As for “MPKITVYTGKEVLQIDAKEGSSLLDILAENSLYVEAPCGGKGICGKCKVAVKKDGKPYLENITKEEKRLLTSDELQKGIRLCCNLKVFESLEVFLPHSKIGAKILSGLYTLEHHHHHH”, the protein production entry is recorded as “failed”.

Turning to “MPKKDNFSILLMGIDARPGQSMDKERSDAMVLATFNRKDKSVKLLSIPRDSYVNIPGRGYDKITHAHSLGGRDLSTETVENLLDIPVDYVMEANFSAFKEVVDELGGVPITIKEDYIVRQIKKDTKGKVNLQTGEQTLGGEEALAYVRTRKADTDLKRGERQMEVIKSIINKSKSLTSIPAYDDILDTVGKNVSMNLSLNDAIGLIPFMTSIQTVDTLQLKGSDYQPGKVYYFQLDQENLNEIKQELKQQLDVLEHHHHHH”, the protein production result was “not failed”. For the sequence “MPKKYDEATKSKAVRLVVDHRDEYDSEYGCIRAVATRIGVGPETLRKWVRQAEIDGGERDGVTTATNRENRELKRKVAELEQTVEMLRAATTFFVRESDPRHR”, the protein production entry is “failed”.

As for “MPKLGMEPIRKAALVKATIVEIGRAGSLDVTVSQIAKRAGMSSALAHHYFGGKEALFIAAMRHVLSLYGAEVRGALLGAETPAARITAILQASFSATNFRREVVGAWLNFYVLAQTAPQARRLLAIYQRRLRSNLLVGLRPLAGERAADLADGLGALIDGLYLREVLKEGPPDSAAAVACARAYLNAHLKECPL”, the protein production entry is recorded as “failed”. Turning to “MPKLLIPAIIFITLALIFYTIGVWSEHRAGILKKKHVIIFWCGLVCDTLGTYTMSRIVAAGTDKGITPTDLLIHQSTGMLAIILMLIHAVWATIVLNRGSEKAKAIFHKFSLVVWFIWLIPYFVGMYIGMTS”, the protein production entry is “failed”.

For the sequence “MPKSCSASNCTNRYNNKNPEITFHRFPFSKPSVLKQWLDNIGRDDFQPRKHMVICSLHFTPDCFSGLGNRKNLLWNAVPTLFAVPTQDANQNNFRKRLKRALQSASEKWDGITPDGLPLFTEEMHEDTQDCNNNEVADCQSTKVFAAADHTYALSDACTTKARLFNILDANRWLRKRLQAKCRVIKRMKLKLKDAQRELLTLRQQIRHRHVNH”, the protein production entry is recorded as “failed”. Take “MPKTLIILAHPNISQSTVHKHWSDAVRQHTDRFTVHELYAVYPQGKIDVAAEQKLIETHDSLVWQFPIYWFNCPPLLKQWLDEVLTYGWAYGSKGKALKGRKIALAVSLGAPAADYRADGAVGCSVAEVLRPFELTAKYCNADYRPPFTFHTIDSNAGYSEAARQEVERSARDYLAWLDALEHHHHHH”: the protein production entry is on record as “not failed”. The result for “MPKTLIILAHPNISQSTVHKHWSDAVRQHTDRFTVHELYAVYPQGKIDVAAEQKLIETHDSLVWQFPIYWFNCPPLLKQWLDEVLTYGWAYGSKGKALKGRKIALAVSLGAPAADYRADGAVGCSVAEVLRPFELTAKYCNADYRPPFTFHTIDSNAGYSEAARQEVERSARDYLAWLDALQQTLEHHHHHH” reads “not failed”; that for “MPKVLNVVFFFSPLIISAVITYFTWVKIETILIDFGLWLAMVTAFYIFLNFYLLLRRSKRYNIEVADEMTGFKIAAFVTSFNEDPEIVERTLLSVKDAVSNQGDVFLLDDSTDENISRRLREFCTRNDINYVHRKDRRGYKAGAINDALRRIQGYDLVAIFDADQRPVRDFFKQVLPYFKDPKIAFVQVPQNYSETFSGISTGAKYQQEPFLRIIMRGRSGRSAFSLGSGTVFRIQALREVGYLPENSITEDAAVSIKLHSKGYNSVYIDVPLIWYGEPPQDLNAYLIQQSRWALGYFQLTKDIIKADLSFLKYYDYFSGFLYWIKEGPLAIVEFISPIVFLLTEIPILRINPILYLLVYLPYLFISIGIFVAGIREETEYGLKGFFYHQCVEFLEFTAVTASFISWLLGRKRPFRVTPKGGGRLNLRILLPHIVILLLLIVSTVKGILWLISANSNFLLYYAIIVNVFWAIYHIPFFLGGILISARFKTRENLTKVVYY”, “failed”. For “MPLEASELKPTAGPLEASELKPTAGPLEASELKPTAGPLEASELKPTAGPLEASELKPTAGPLEASELKPTAGPLEASELKPTAGMEKTKKIAVMSGKGGVGKTTVAVNLAVALAAEGYQVGLLDLDLHGPNVQRMLGVSLPPSEGEKIVPAKYGDSLKVFSLAMILQEGAPVIWRGPLKHKAIEQLTRDVEWGDLDYLICDLPPGTGDEALSTFQIIKPDAVIVVSTPQKVAGDDVRRAINFVKRLSGKILGLVENMSYLVCPNCGEKIYVFGKGETEKLAEEFGIPLIARIPMDPEVVSLSDEGRPAVVYKRGTVIEEEFKKIVEKVLSLLEHHHHHH” the value was “failed”; for “MPLFKFAIDVQYRSNVRDPRGETIERVLREEKGLPVKKLRLGKSIHLEVEAENKEKAYEIVKKACEELLVNPVVEEYEVREL”, “not failed”. For “MPLIVSSSIMIHAKLIYTFEDAQLDGQIVAALDVNTVANAVYAHNYGSNLVKTRNIQSLSVKEVTKLQANMLLMSPPCQPHTRQGLQRDTEDKRSDALTH” the value was “failed”.
